T1: extracellular domain of human LEPR, GPI-anchored, on HEK293/hLEPR-GPI cells (human, UniProt P48357 22-839, GPI anchor at the C-terminus ; GPI anchor at the C-terminus, added through the carboxypeptidase M signal peptide. The N-terminal myc-myc tag is not written.)
T1 sequence: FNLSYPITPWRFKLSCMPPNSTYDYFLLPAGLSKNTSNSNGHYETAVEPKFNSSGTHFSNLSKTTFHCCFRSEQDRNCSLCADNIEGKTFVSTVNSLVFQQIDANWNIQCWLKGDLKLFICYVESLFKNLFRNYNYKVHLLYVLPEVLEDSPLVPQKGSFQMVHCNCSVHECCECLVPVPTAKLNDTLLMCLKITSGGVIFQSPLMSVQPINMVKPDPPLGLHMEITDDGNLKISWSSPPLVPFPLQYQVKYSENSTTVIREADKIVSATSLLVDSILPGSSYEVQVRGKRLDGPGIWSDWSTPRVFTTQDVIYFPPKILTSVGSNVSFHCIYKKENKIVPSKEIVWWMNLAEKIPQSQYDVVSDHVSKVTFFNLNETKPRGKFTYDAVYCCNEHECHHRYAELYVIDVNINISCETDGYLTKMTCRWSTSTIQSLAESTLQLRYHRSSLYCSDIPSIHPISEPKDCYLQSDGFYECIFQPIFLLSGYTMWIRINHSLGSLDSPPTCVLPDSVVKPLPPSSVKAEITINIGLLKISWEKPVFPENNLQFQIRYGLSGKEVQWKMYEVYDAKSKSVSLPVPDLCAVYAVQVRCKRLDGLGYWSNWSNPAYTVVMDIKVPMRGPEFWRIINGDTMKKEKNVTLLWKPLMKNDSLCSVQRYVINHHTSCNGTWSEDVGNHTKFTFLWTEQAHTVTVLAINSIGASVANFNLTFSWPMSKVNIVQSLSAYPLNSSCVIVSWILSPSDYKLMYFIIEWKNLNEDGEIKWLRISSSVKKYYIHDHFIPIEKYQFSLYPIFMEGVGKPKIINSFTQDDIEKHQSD

T2: Macaca Fascicularis GP130 extracellular domain expressed with a C-terminal myc-myc-hexahistidine tag (Macaca fascicularis, UniProt P40189 23-619 (human entry))
T2 construct: also called mfGP130-MMH; mfGP130-mmH
T2 chain: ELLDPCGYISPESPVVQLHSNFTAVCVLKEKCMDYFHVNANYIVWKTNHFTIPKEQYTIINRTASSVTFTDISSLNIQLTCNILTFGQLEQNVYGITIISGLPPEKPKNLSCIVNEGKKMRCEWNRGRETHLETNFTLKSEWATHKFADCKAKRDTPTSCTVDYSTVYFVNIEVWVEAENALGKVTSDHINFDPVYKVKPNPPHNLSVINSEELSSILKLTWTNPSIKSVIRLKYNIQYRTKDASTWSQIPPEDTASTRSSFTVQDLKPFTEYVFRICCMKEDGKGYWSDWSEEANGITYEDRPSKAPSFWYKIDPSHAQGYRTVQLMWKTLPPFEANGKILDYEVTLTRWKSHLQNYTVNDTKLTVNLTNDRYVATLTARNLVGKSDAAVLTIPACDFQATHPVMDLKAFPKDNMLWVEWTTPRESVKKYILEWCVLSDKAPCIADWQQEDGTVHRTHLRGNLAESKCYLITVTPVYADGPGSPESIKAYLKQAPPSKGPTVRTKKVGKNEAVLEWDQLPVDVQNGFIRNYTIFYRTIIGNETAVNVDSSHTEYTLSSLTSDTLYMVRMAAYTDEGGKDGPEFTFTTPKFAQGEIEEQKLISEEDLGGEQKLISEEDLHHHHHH

B1: bsAb21236D (bispecific antibody, V domains shown)
VH 1: QVQLQESGPGLVKPSQTLSLTCTVSGGSISSGGDYWSWIRQLPGKGLEWIGYIYYSGSAYYNPSLKSRGTISIDTSKNQFSLKLTSVTAADTAVYFCVKLRFLEWFLGGWFGPWGQGTLVTVSS
VH 2: QVQLVESGGGLVKPGGSLRLSCAASGFTFSDYYMTWIRQTPGKGLDWVSYISSSGTNKYNADSVKGRFTISRDNAKNSLYLQMNSLRAEDTAVYYCVRDPPWGMDVWGQGTTVTVSS
VL: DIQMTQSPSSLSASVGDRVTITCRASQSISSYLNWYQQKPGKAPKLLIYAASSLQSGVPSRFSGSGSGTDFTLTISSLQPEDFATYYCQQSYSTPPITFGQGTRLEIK
notes: LEPR x GP130 bispecific with common light chain; also called H4H21236D; bsAb21236 (LEPR × GP130)
B2: bsAb21237D (bispecific antibody, V domains shown)
VH 1: EVQLVESGGGLVQPGGSLRLSCAASGFTFSNYGMTWVRQAPGKGLEWVSAITGGGGSTYYSNSVKGRFTISRDNSKNTVYLRMNSVRAEDTAVYYCAKYKWNFVDDWGQGTTVTVSS
VH 2: B1 VH 2
VL: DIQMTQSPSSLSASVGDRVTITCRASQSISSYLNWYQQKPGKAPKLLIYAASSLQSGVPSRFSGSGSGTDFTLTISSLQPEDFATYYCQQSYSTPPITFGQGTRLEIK
notes: LEPR x GP130 bispecific with common light chain; also called H4H21237D; bsAb21237 (LEPR × GP130)

Legend:
[1] = target: T1, extracellular domain of human LEPR, …; assay: FACS, 200 nM antibody on HEK293/hLEPR-GPI cells, 1 µM Leptin
Experimental: For the FACS analysis, 0.5×10^6 cells/well of HEK293 parental cells, HEK293/Stat3-luc/gp130-2 X Sort cells, and HEK293/hLEPR-GPI cells, were incubated with 200 nM of the conventional antibodies against either GP130 or LEPR or with LEPRxGP130 bispecific antibodies, along with isotype control antibodies at 4° C. in PBS (without calcium and magnesium) containing 2% FBS.
Cells were fixed using BD CytoFix™ (Becton Dickinson, #554655) and analyzed on an IQue® (Intellicyt) Flow Cytometer. Unstained and secondary antibody alone controls were also tested for all cell lines. The results were analyzed using ForeCyt® (IntelliCyt) and FlowJo version 10 softwares to determine the geometric means of fluorescence for viable cells.

[2] = target: T3, human GP130 extracellular domain expressed with a C-terminal myc-myc-hexahistidine tag (human, UniProt P40189 23-619); assay: SPR, bsAb captured by anti-hFc, 37C
T3 construct: also called hGP130-MMH; hGP130-mmH
Method in brief: (§1)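 Anti-hFc-captured bispecific antibodies received 3-fold serial dilutions of LEPR or GP130 (100 nM–3.7 nM) in HBS-ET, pH 7.4, injected for 4 min with 10 min dissociation at 25 °C or 37 °C. ka and kd came from a 1:1 binding model with mass transport limitation, and KD and t½ were calculated from these rate constants.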

[3] = target: T3, human GP130 extracellular domain …; assay: SPR, bsAb captured by anti-hFc, 25C
Method in brief: as §1

[4] = target: T2, Macaca Fascicularis GP130 extracellular …; assay: SPR, bsAb captured by anti-hFc, 25C
Method in brief: as §1

Binder | Binding Ratio, normalized to unstained sample (FL4-A) [1] | 100 nM hGP130-MMH Bound (RU) [2] | Kd [2] | koff [2] | kon [2] | t½ [2] | 100 nM hGP130-MMH Bound (RU) [3] | Kd [3] | koff [3] | kon [3] | t½ [3] | 100 nM mfGP130-MMH Bound (RU) [4] | Kd [4] | koff [4] | kon [4] | t½ [4]
B1 | 3600 fold | 12 RU | 248 nM | 0.0148 s⁻¹ | 59700 M⁻¹ s⁻¹ | 0.8 min | 12 RU | 140 nM | 0.00426 s⁻¹ | 30300 M⁻¹ s⁻¹ | 2.7 min | 21 RU | 104 nM | 0.00305 s⁻¹ | 29400 M⁻¹ s⁻¹ | 3.8 min
B2 | 5930 fold | 19 RU | 144 nM | 0.00879 s⁻¹ | 61100 M⁻¹ s⁻¹ | 1.3 min | 17 RU | 55.2 nM | 0.00274 s⁻¹ | 49600 M⁻¹ s⁻¹ | 4 min | 18 RU | 53.4 nM | 0.00213 s⁻¹ | 39800 M⁻¹ s⁻¹ | 5 min

— patent publication US20240158497A1 (published 2024)
